# Values of other authors as cited in article PMC3082853.
# Biological target: FepA (Escherichia coli) (UniProt P05825)
# UniProt P05825, sequence (P05825 23-746): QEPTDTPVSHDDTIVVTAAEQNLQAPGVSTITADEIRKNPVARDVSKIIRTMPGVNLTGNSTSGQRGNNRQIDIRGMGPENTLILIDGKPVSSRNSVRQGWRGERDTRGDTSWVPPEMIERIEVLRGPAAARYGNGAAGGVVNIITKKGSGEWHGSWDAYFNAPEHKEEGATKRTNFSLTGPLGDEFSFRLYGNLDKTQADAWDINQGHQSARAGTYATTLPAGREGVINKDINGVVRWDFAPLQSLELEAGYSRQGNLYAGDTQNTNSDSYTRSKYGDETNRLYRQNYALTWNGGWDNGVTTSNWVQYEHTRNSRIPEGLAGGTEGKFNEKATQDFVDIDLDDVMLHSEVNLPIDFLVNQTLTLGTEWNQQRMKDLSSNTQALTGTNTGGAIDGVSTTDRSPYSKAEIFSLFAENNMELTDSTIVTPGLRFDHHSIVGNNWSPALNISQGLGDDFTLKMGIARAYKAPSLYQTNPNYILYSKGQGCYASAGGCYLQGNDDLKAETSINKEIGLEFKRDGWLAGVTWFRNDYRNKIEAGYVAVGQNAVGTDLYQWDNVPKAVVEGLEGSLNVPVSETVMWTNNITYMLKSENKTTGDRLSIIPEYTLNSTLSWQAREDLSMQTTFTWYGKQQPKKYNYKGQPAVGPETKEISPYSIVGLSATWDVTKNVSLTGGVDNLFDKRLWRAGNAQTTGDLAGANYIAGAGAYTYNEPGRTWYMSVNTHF
substance,measurement,value
colicin B (from UniProt P05819),Kd,185 nM
